Measured values: patent US5866683A, “Isoelectric point markers for isoelectric focusing with fluorescence detection” (Laboratory of Molecular Biophotonics, priority 1995, dated 1999)
Where no end group is shown, it is not given here.

Assay: isoelectric focusing in polyacrylamide slab gel, mobility compared with commercial pI markers
Assay type: physicochemical
Details: fluorescence-labeled (5-carboxytetramethylrhodamine) oligopeptide, carrier ampholyte pH 3.5-10, vs pI calibration kit 3-10 (range pI 9.30-3.5)
Excerpt: In the present invention, pI of each marker for isoelectric focusing with fluorescence detection can be determined by performing isoelectric focusing to compare a mobility thereof with those of commercially available markers for isoelectric focusing or to directly measure pH at a position of migration of the labeled peptide. The isoelectric focusing preferably applicable is isoelectric focusing in polyacrylamide slab gel (see […]., Isoelectric Focusing: Theory, Methodology and Applications, Elsevier, Amsterdam, 1983). […] The focusing conditions were as follows: started at […] and focusing the voltage was increased at intervals of 15 minutes to 100 V, 200 V, 400 V, and 600 V. After focusing, fluorescence-labeled oligopeptides in the gel were photographed through an orange filter under illumination with ultraviolet light, thereby checking focusing positions thereof. […] After staining, de-stained with a mixed solvent of methanol and acetic acid to obtain a clear background, thereby checking the focusing positions. FIG. 5,6,and 7 show the focusing positions of the 24 fluorescence-labeled oligopeptides obtained and the isoelectric focusing markers commercially available.

Substance | pI Observed
EHHHKR [No 17, oligopeptide labeled with 5-carboxytetramethylrhodamine] | 7.90
DEYHKR [No 12, oligopeptide labeled with 5-carboxytetramethylrhodamine] | 5.55
DDEHHHKR [No 20, oligopeptide labeled with 5-carboxytetramethylrhodamine] | 4.70
Tyr--Tyr--His--Lys--Arg (YYHKR; printed: Tyr--Tyr--His--Lys--Arg) [No 8, oligopeptide labeled with 5-carboxytetramethylrhodamine] | > 9.30
Glu--His--Lys--Arg (EHKR; printed: Glu--His--Lys--Arg) [No 9, oligopeptide labeled with 5-carboxytetramethylrhodamine] | 7.65

Assay: not given
Details: unlabeled protein; cited from earlier work

Substance | pI (known) of conventional protein pI marker
bovine carbonic anhydrase [reference compound] | 6.00
phycocyanin [reference compound] | 4.65
human carbonic anhydrase [reference compound] | 6.50
human hemoglobin A [reference compound] | 7.10
β-lactoglobulin B [reference compound] | 5.10
